Experimental data: patent US20180072770A1, “Influenza Virus Binding Peptides” (priority 2014, published 2018)
No end group written: not given here.

Assays:
[1] = target: T1, hemagglutinin of influenza A virus X31 (A/Aichi/2/68 H3N2) (influenza A virus A/Aichi/2/68 H3N2 (X31)), P03437
[2] = target: T1, hemagglutinin of influenza A virus X31 …; remark: listed apart in the source
[3] = target: T1, hemagglutinin of influenza A virus X31 …; assay: cell-based or functional assay
[4] = target: T1, hemagglutinin of influenza A virus X31 …; assay: SPR competition, virus preincubated with peptide, immobilised fetuin

B1: reference peptide with SEQ ID NO:1 (FYDYDVFY), N-terminal (Lys)4, C-terminal amide (peptide)
peptide: KKKKFYDYDVFY
modifications: not fully specified (C-terminus)
IC50 [1]: 90 µM | Kd [2]: 59 µM | Hemagglutination inhibition (IC50, HAI) [3]: 163 µM | Mean Ki(HAI), hemagglutination inhibition assay, human erythrocytes [3]: 235 µM

B2: peptide with SEQ ID NO:28, N-terminal (Lys)4, C-terminal amide (peptide)
peptide: KKKKFYGYDVFF
modifications: not fully specified (C-terminus)
IC50 [1]: 20 µM | Hemagglutination inhibition (IC50, HAI) [3]: 18 µM | Mean Ki(HAI), hemagglutination inhibition assay, human erythrocytes [3]: 31.9 µM | fold lower IC50,RB than the reference peptide SEQ ID NO:1 [4]: 4.5 fold
